According to paper PMC4823740:
Several values for one entry are separate records, joined by “and”; a condition that tells them apart may be missing. Identical values can stand only once. Each block holds one substance with its values, some of them ahead of it.

Columns and labels:
[1] = target: AgsA:DelC, AgsA lacking 9 residues at the C-terminus, tagless (Salmonella enterica serovar typhimurium LT2); assay: crystal structure; AgsA:DelC; 30% pentaerythritol propoxylate (5/4 PO/OH), 0.1 M MES pH 6.0, 30% glycerol, 20 °C; space group I23, a dimer in the asymmetric unit, 4.1 Å
[2] = target: AgsA:DelC, AgsA lacking 9 residues at the C-terminus, tagless (Salmonella enterica serovar typhimurium LT2); assay: SEC; analytical SEC, Superose 6 10/300, 20 mM Tris, 50 mM NaCl, pH 7.5, calibrated with molecular weight markers; oligomeric state in solution
[3] = target: AgsA:DD, double deletion AgsA lacking 11 residues at the N-terminus and 9 residues at the C-terminus, tagless (Salmonella enterica serovar typhimurium LT2); assay: as above
[4] = target: AgsA:DD, double deletion AgsA lacking 11 residues at the N-terminus and 9 residues at the C-terminus, tagless (Salmonella enterica serovar typhimurium LT2); assay: crystal structure; AgsA:DD; 30% polypropylene glycol 400, 0.1 M NaCl, 20 °C; space group R32, 3 dimers in the asymmetric unit, 7.5 Å
[5] = target: core ACD fragment of AgsA:His-DD (degraded fragment in the crystal, residues 35-147) (Salmonella enterica serovar typhimurium LT2); assay: crystal structure; AgsA:His-DD degraded in the drop; 25% pentaerythritol propoxylate (5/4 PO/OH), 0.1 M MES pH 6.0, 20% MPD, 20 °C; space group P4(1)2(1)2, 2.0 Å
[6] = target: Aggregation Suppressing Protein A (AgsA) wild type, tagless (Salmonella enterica serovar typhimurium LT2); assay: SEC-MALS; unseparated wild type protein; Superose 6 10/300, 20 mM Tris, 200 mM NaCl, pH 8.0; about 100 uL of 2 mg/mL injected
[7] = target: Aggregation Suppressing Protein A (AgsA) wild type, tagless (Salmonella enterica serovar typhimurium LT2); assay: SEC-MALS; separated 18-mer fraction of the wild type after size exclusion chromatography; Superdex 200 10/300, 20 mM Tris, 50 mM NaCl, pH 7.5
[8] = target: Aggregation Suppressing Protein A (AgsA) wild type, tagless (Salmonella enterica serovar typhimurium LT2); assay: SEC-MALS; separated 24-mer fraction of the wild type after size exclusion chromatography; Superdex 200 10/300, 20 mM Tris, 50 mM NaCl, pH 7.5
[9] = target: AgsA:His-DD, hexa-histidine tagged double deletion construct of AgsA (Salmonella enterica serovar typhimurium LT2); assay: SEC; analytical SEC, Superose 6 10/300, 20 mM Tris, 50 mM NaCl, pH 7.5, calibrated with molecular weight markers; oligomeric state in solution

Substance: AgsA:DelC, AgsA lacking 9 residues at the C-terminus, tagless (domain or fragment)
stoichiometry N [1]: 24
stoichiometry N [2]: 24

Substance: AgsA:DD, double deletion AgsA lacking 11 residues at the N-terminus and 9 residues at the C-terminus, tagless (domain or fragment)
stoichiometry N [3]: 18
stoichiometry N [4]: 18

Substance: core ACD fragment of AgsA:His-DD (degraded fragment in the crystal, residues 35-147) (domain or fragment)
stoichiometry N [5]: 2

stoichiometry N [6]: 18 and 24
stoichiometry N [7]: 18
stoichiometry N [8]: 18 and 24
Substance: Aggregation Suppressing Protein A (AgsA) wild type, tagless (natural protein)

Substance: AgsA:His-DD, hexa-histidine tagged double deletion construct of AgsA (domain or fragment)
stoichiometry N [9]: 24
